Molecular target: RSV phosphoprotein fragment P_(127–163) (respiratory syncytial virus (RSV)) (UniProt P12579)
Assay: SAXS; SEC-SAXS, 293 K, 200 µM P127-163 in 20 mM Na phosphate pH 6.5, 100 mM NaCl; scattering curve fitted with the NMR structure on the FoXs server

Substance: RSV phosphoprotein fragment P_(127–163) (from UniProt P12579 127-163) (domain or fragment)
- stoichiometry N: 4
